The target of assay [1] is voltage-gated potassium channel rKv1.2 (rat (from the prefix in rKv1.2)) (UniProt P63142).
Assay [2] addresses voltage-gated potassium channel rKv1.6 (rat (from the prefix in rKv1.6)) (UniProt P17659).
A further assay concerns Kv1.2 channels. The assay is described as follows: Two-electrode voltage-clamp on Kv1.2 expressed in X. laevis oocytes. Particulars: for IC50: read-out: IC50 for Kv1.2, two-electrode voltage-clamp, X. laevis oocytes, concentration-response curve fitted with Hill equation, mean ± standard error, n ≥ 3.
In a further assay the test system is Kv1.6 channels. The assay is described as follows: Two-electrode voltage-clamp on Kv1.6 expressed in X. laevis oocytes. Particulars: for IC50: read-out: IC50 for Kv1.6, two-electrode voltage-clamp, X. laevis oocytes, concentration-response curve fitted with Hill equation, mean ± standard error, n ≥ 3.
Assay [3] has as its target voltage-gated potassium channel rKv1.2 (rat (from the prefix in rKv1.2)) (UniProt P63142). The source holds these as a separate data set.
Assay [4] addresses voltage-gated potassium channel rKv1.6 (rat (from the prefix in rKv1.6)) (UniProt P17659). This is another data set of the same source.

Where two headings read alike, the source gives them in different places. Ends that are not written are not given here.

voltage-gated potassium channel rKv1.6 (rat (from the prefix in rKv1.6)), sequence (P17659 whole entry): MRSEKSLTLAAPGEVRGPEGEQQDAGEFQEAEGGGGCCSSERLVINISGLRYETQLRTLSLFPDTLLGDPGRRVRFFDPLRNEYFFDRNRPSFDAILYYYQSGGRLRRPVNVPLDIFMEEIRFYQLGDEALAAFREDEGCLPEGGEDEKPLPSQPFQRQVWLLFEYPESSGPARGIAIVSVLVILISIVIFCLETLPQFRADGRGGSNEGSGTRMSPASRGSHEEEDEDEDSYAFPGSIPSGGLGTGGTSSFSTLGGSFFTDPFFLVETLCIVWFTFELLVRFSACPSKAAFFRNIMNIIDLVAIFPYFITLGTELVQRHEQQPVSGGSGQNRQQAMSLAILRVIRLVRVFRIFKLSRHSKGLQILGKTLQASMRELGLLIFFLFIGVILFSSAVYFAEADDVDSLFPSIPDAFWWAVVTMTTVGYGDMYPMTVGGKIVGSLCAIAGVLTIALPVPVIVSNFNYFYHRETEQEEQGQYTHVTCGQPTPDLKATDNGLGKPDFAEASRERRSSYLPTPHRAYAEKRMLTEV
voltage-gated potassium channel rKv1.2 (rat (from the prefix in rKv1.2)), sequence (P63142 whole entry): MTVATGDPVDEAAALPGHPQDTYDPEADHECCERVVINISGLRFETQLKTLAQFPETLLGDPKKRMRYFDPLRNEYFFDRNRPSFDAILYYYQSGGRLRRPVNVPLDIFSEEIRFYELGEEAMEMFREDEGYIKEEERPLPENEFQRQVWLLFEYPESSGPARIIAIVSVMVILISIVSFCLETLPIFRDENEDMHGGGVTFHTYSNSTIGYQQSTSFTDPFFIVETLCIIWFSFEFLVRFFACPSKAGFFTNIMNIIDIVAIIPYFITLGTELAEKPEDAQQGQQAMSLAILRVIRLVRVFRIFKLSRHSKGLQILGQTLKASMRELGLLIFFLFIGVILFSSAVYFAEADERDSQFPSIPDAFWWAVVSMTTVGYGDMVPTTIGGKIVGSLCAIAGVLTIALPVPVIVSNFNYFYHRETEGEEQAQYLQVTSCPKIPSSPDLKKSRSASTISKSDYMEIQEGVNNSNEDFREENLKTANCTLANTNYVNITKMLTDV
Description for Kv1.2 channels: (§1) For the expression of the voltage-gated potassium channels (rKv1.1, rKv1.2, hKv1.3, rKv1.4, rKv1.5, rKv1.6, Shaker IR, hKv3.1, rKv4.3, and hERG) in Xenopus laevis oocytes, the linearized plasmids were transcribed using the T7 or SP6 mMESSAGE-mMACHINE transcription kit (Ambion). The harvesting of stage V–VI oocytes from an anaesthetized female X. laevis frog was previously described[59]. Oocytes were injected with 50 nL of cRNA at a concentration of 1 ng/nL using a micro-injector (Drummond Scientific, USA). The oocytes were incubated in a solution containing (in mM): NaCl, 96; KCl, 2; CaCl2, 1.8; MgCl2, 2 and HEPES, 5 (pH 7.4), supplemented with 50 mg/L gentamycin sulfate.
(§2) Two-electrode voltage-clamp recordings were performed at room temperature (18–22 °C) using a Geneclamp 500 amplifier (Molecular Devices, USA) controlled by a pClamp data acquisition system (Axon Instruments, USA). Whole cell currents from oocytes were recorded 1–4 days after injection. Bath solution composition was ND96 (in mM): NaCl, 96; KCl, 2; CaCl2, 1.8; MgCl2, 2 and HEPES, 5 (pH 7.4) or HK (in mM): NaCl, 2; KCl, 96; CaCl2, 1.8; MgCl2, 2 and HEPES, 5 (pH 7.4). Voltage and current electrodes were filled with 3 M KCl. Resistances of both electrodes were kept between 0.7 and 1.5 MΩ. The elicited currents were filtered at 0.5 kHz and sampled at 2 kHz (for potassium currents) or filtered at 2 kHz and sampled at 20 kHz (for sodium currents) using a four-pole low-pass Bessel filter. Leak subtraction was performed using a -P/4 protocol. Kv1.1–Kv1.6 and Shaker currents were evoked by 250 ms depolarizations to 0 mV followed by a 250 ms pulse to −50 mV, from a holding potential of −90 mV. Current traces of hERG channels were elicited by applying a +40 mV prepulse for 2 s followed by a step to −120 mV for 2 s. […] In order to investigate the current–voltage relationship, current traces were evoked by 10 mV depolarization steps from a holding potential of −90 mV. To assess the concentration dependency of the toxin induced inhibitory effects, a concentration–response curve was constructed, in which the percentage of current inhibition was plotted as a function of toxin concentration. Data were fitted with the Hill equation: y = 100/[1 + (IC50/[toxin])^h], were y is the amplitude of the toxin-induced effect, IC50 is the toxin concentration at half-maximal efficacy, [toxin] is the toxin concentration, and h is the Hill coefficient. GV curves were calculated from IV relationships as follows: gK = IK/(Em−EK) with EK = (RT/zF)ln[K #0]o/[K #0]i. In these equations gK represents the conductance, IK the potassium current, Em the membrane potential, EK the reversal potential, R the gas constant (8.31 J/K mol), T the temperature, z the charge of the ion (for K+ ions: z = 1), F the Faraday’s constant (96.500 C/mol), [K #0]o and [K #0]i respectively are the extracellular and intracellular K+ ion concentrations. The values of IK or gK were plotted as function of voltage and fitted using the Boltzmann equation: gK/gmax = [1 + exp(Vg−V)/k]−1, were gmax represents maximal gK, Vg is the voltage corresponding to half-maximal conductance, and k is the slope factor. Comparison of two sample means was made using a paired Student’s t test (P < 0.05). All data represent at least three independent experiments (n ≥ 3) and are presented as mean ± standard error.
Description for Kv1.6 channels: as §1, §2

In assay [1], “recombinant Arabidopsis thaliana plant defensin AtPDF2.3 (from UniProt Q9ZUL7 31-77) (peptide)” yielded an IC50 of inhibition of Kv1.2 potassium current, two-electrode voltage clamp on X. laevis oocytes, concentration-response curve of 1300 nM; an inhibition of the Kv1.2 potassium current by 2 μM rAtPDF2.3 in HK solution of 66%; an inhibition of the Kv1.2 potassium current by 2 μM rAtPDF2.3 in ND96 solution (data not shown) of 59%. The molecule further came in with an IC50 of inhibition of Kv1.6 potassium current, two-electrode voltage clamp on X. laevis oocytes, concentration-response curve in assay [2] of 978 nM.

In the case of “rAtPDF2.3[G36N]: rAtPDF2.3 variant with both Lysine33 and Asparagine36 (KCXN toxin signature) (RTCESKSHRFKGPCVSTHNCANVCHNEGFGGGKCRNFRRRCYCTRHC; ends and bridges not checked; cysteine pairing not given here)”, in the assay on Kv1.2 channels (ratio of IC50 values), the “fold decrease of Kv1.2 IC50 as compared to rAtPDF2.3” value was found to be 2.1 fold. Besides, the results for the IC50 with Kv1.2 channels and in the assay on Kv1.6 channels were 611 ± 91 nM and 138 ± 38 nM, respectively. In addition, the “fold decrease of Kv1.6 IC50 as compared to rAtPDF2.3” value in the assay on Kv1.6 channels (ratio of IC50 values) came to 7.1 fold.

On to “AtPDF2.3 [K33A][G36N]: rAtPDF2.3 variant containing only Asparagine36 (CXN toxin signature) (RTCESKSHRFKGPCVSTHNCANVCHNEGFGGGACRNFRRRCYCTRHC; ends and bridges not checked; cysteine pairing not given here)”, for which the results for the IC50 in the assay with Kv1.2 channels and with Kv1.6 channels were 1380 ± 133 nM and 366 ± 114 nM, respectively.

In the case of “rAtPDF2.3[K33A]: rAtPDF2.3 variant with neither Lysine33 nor Asparagine36, devoid of the toxin signature (RTCESKSHRFKGPCVSTHNCANVCHNEGFGGGACRGFRRRCYCTRHC; ends and bridges not checked; cysteine pairing not given here)”, the IC50 in the assay with Kv1.2 channels stood at 2040 ± 383 nM; with Kv1.6 channels, 3500 ± 235 nM.

Turning to RTCESKSHRFKGPCVSTHNCANVCHNEGFGGGACRGFRRRCYCTRHC (not fully specified; cysteine pairing not given here) [rAtPDF2.3[K33A]], the IC50 of inhibition of Kv1.2 potassium current, two-electrode voltage clamp on X. laevis oocytes, concentration-response curve in assay [3] was 2040 nM. This molecule also displayed an IC50 of inhibition of Kv1.6 potassium current, two-electrode voltage clamp on X. laevis oocytes, concentration-response curve in assay [4] of 3500 nM.

In turn, RTCESKSHRFKGPCVSTHNCANVCHNEGFGGGACRNFRRRCYCTRHC (not fully specified; cysteine pairing not given here) [rAtPDF2.3[K33A][G36N]] showed an IC50 of inhibition of Kv1.2 potassium current, two-electrode voltage clamp on X. laevis oocytes, concentration-response curve in assay [3] of 1380 nM. In assay [4], the IC50 of inhibition of Kv1.6 potassium current, two-electrode voltage clamp on X. laevis oocytes, concentration-response curve worked out at 366 nM.

For RTCESKSHRFKGPCVSTHNCANVCHNEGFGGGKCRNFRRRCYCTRHC (not fully specified; cysteine pairing not given here) [rAtPDF2.3[G36N]], in assay [3], the IC50 of inhibition of Kv1.2 potassium current, two-electrode voltage clamp on X. laevis oocytes, concentration-response curve was 611 nM. Moreover, in assay [4], the IC50 of inhibition of Kv1.6 potassium current, two-electrode voltage clamp on X. laevis oocytes, concentration-response curve is 138 nM.

Source of the values: PMC5004176, “The antifungal plant defensin AtPDF2.3 from Arabidopsis thaliana blocks potassium channels” (Scientific Reports, 2016).
